From the RNAGym collection of RNA variant scans (doi:10.7554/elife.90254)

B1: LINE1-mini (parent)
chain: GGCAGAGCUCAACACAGCGUGGCAAAGUGGCUGUGGCUAGACUGCC

Variants of: B1
Assay: self-cleavage, relative activity (ratio to wild type); higher = more cleavage; in vitro, sequencing; the parent is a self-cleaving ribozyme

| Variant | self-cleavage |
| --- | --- |
| GGCAGAGCUCAACACAGCCUGGCAACGUGGCUGUGGCUAGACUGCC | 0.68 |
| GGCAGAGCUCAACACAGCCUGGCAAUGUGGCUGUGGCUAGACUGCC | 0.37 |
| GGCAGAGCUCAACACAGCCUGGCAAGGUGGCUGUGGCUAGACUGCC | 0.27 |
| GGCAGAGCUCAACACAGCAUGGCAAAGUGGCUGUGGAUAGACUGCC | 0.07 |
| GGCAGAGCUCAACACAGCAUGGCAAAGUGGCUGUGGUUAGACUGCC | 0.05 |
| GGCAGAGCUCAACACAGCAUGGCAAAGUGGCUGUGGGUAGACUGCC | 0.03 |
| GGCAGAGCUCAACACAGCCUGGCGAAGUGGCUGUGGCUAGACUGCC | 0.53 |
| GGCAGAGCUCAACACAGCCUGGCCAAGUGGCUGUGGCUAGACUGCC | 0.34 |
| GGCAGAGCUCAACACAGCCUGGCUAAGUGGCUGUGGCUAGACUGCC | 0.6 |
| GGCAGAGCUCAACACAGCAUCGCAAAGUGGCUGUGGCUAGACUGCC | 0.39 |
| GGCAGAGCUCAACACAGCAUUGCAAAGUGGCUGUGGCUAGACUGCC | 0.72 |
| GGCAGAGCUCAACACAGCAUAGCAAAGUGGCUGUGGCUAGACUGCC | 2.83 |
| GGCAGAGCUCAACACAGCCUGGCAAAGUGGCUGUGGCUAGACUGCC | 0.5 |
| GGCAGAGCUCAACACAGCAUGGCAAAGUAGCUGUGGCUAGACUGCC | 1.14 |
| GGCAGAGCUCAACACAGCAUGGCAAAGUUGCUGUGGCUAGACUGCC | 0.94 |
| GGCAGAGCUCAACACAGCAUGGCAAAGUCGCUGUGGCUAGACUGCC | 1.31 |
| GGCAGAGCUCAACACAGCCUUGCAAAGUGGCUGUGGCUAGACUGCC | 0.47 |
| GGCAGAGCUCAACACAGCCUCGCAAAGUGGCUGUGGCUAGACUGCC | 0.27 |
| GGCAGAGCUCAACACAGCCUAGCAAAGUGGCUGUGGCUAGACUGCC | 0.51 |
| GGCAGAGCUCAACACAGCCUGGCAAAGUGGCUGUGGCUAGACUGAC | 0.47 |
| GGCAGAGCUCAACACAGCCUGGCAAAGUGGCUGUGGCUAGACUGUC | 0.79 |
| GGCAGAGCUCAACACAGCCUGGCAAAGUGGCUGUGGCUAGACUGGC | 0.17 |
| GGCAGAGCUCAACACAGCAUGGCAAAGUGGCUGUGGCUAAACUGCC | 0.11 |

| Variant | self-cleavage |
| --- | --- |
| GGCAGAGCUCAACACAGCAUGGCAAAGUGGCUGUGGCUAUACUGCC | 0.16 |
| GGCAGAGCUCAACACAGCAUGGCAAAGUGGCUGUGGCUACACUGCC | 0.07 |
| GGCAGAGCUCAACACAGCAUGGCAAAGUGGCUGUUGCUAGACUGCC | 0.14 |
| GGCAGAGCUCAACACAGCAUGGCAAAGUGGCUGUCGCUAGACUGCC | 0.21 |
| GGCAGAGCUCAACACAGCAUGGCAAAGUGGCUGUAGCUAGACUGCC | 0.18 |
| GGCAGAGCUCAACACAGCAUGGCAAACUGGCUGUGGCUAGACUGCC | 0.53 |
| GGCAGAGCUCAACACAGCAUGGCAAAUUGGCUGUGGCUAGACUGCC | 0.93 |
| GGCAGAGCUCAACACAGCAUGGCAAAAUGGCUGUGGCUAGACUGCC | 1.19 |
| GGCAGAGCUCAACACAGCCUGGCAAAGUGGGUGUGGCUAGACUGCC | 1.26 |
| GGCAGAGCUCAACACAGCCUGGCAAAGUGGAUGUGGCUAGACUGCC | 0.63 |
| GGCAGAGCUCAACACAGCCUGGCAAAGUGGUUGUGGCUAGACUGCC | 0.58 |
| GGCAGAGCUCAACACAGCAUGGCAAAGUGGCUGUGGCGAGACUGCC | 0.02 |
| GGCAGAGCUCAACACAGCAUGGCAAAGUGGCUGUGGCAAGACUGCC | 0.82 |
| GGCAGAGCUCAACACAGCAUGGCAAAGUGGCUGUGGCCAGACUGCC | 1.09 |
| GGCAGAGCUCAACACAGCAUGGCAAAGUGGCUGUGGCUAGACUUCC | 0.51 |
| GGCAGAGCUCAACACAGCAUGGCAAAGUGGCUGUGGCUAGACUACC | 0.75 |
| GGCAGAGCUCAACACAGCAUGGCAAAGUGGCUGUGGCUAGACUCCC | 0.48 |
| GGCAGAGCUCAACACAGCCUGGCAAAGUGGCUGUGGCUAGGCUGCC | 0.03 |
| GGCAGAGCUCAACACAGCCUGGCAAAGUGGCUGUGGCUAGUCUGCC | 0.19 |
| GGCAGAGCUCAACACAGCCUGGCAAAGUGGCUGUGGCUAGCCUGCC | 0.05 |
| GGCAGAGCUCAACACAGCAUGGCAAAGUGGCUGUGGCUAGACGGCC | 0.06 |
| GGCAGAGCUCAACACAGCAUGGCAAAGUGGCUGUGGCUAGACAGCC | 0.15 |
| GGCAGAGCUCAACACAGCAUGGCAAAGUGGCUGUGGCUAGACCGCC | 0.18 |

| Variant | self-cleavage |
| --- | --- |
| GGCAGAGCUCAACACAGCAUGGCAAAGUGGCUUUGGCUAGACUGCC | 0.15 |
| GGCAGAGCUCAACACAGCAUGGCAAAGUGGCUCUGGCUAGACUGCC | 0.05 |
| GGCAGAGCUCAACACAGCAUGGCAAAGUGGCUAUGGCUAGACUGCC | 0.11 |
| GGCAGAGCUCAACACAGCAUGGCAAAGUGGCUGUGGCUAGACUGAC | 0.79 |
| GGCAGAGCUCAACACAGCAUGGCAAAGUGGCUGUGGCUAGACUGGC | 0.38 |
| GGCAGAGCUCAACACAGCAUGGCAAAGUGGCUGUGGCUAGACUGUC | 1.74 |
| GGCAGAGCUCAACACAGCCUGGCAAAGUGGCUGUGGCUAGAAUGCC | 0.14 |
| GGCAGAGCUCAACACAGCCUGGCAAAGUGGCUGUGGCUAGAUUGCC | 0.25 |
| GGCAGAGCUCAACACAGCCUGGCAAAGUGGCUGUGGCUAGAGUGCC | 0.01 |
| GGCAGAGCUCAACACAGCAUGGCAAAGUGGGUGUGGCUAGACUGCC | 0.17 |
| GGCAGAGCUCAACACAGCAUGGCAAAGUGGUUGUGGCUAGACUGCC | 0.6 |
| GGCAGAGCUCAACACAGCAUGGCAAAGUGGAUGUGGCUAGACUGCC | 0.46 |
| GGCAGAGCUCAACACAGCAUGACAAAGUGGCUGUGGCUAGACUGCC | 0.62 |
| GGCAGAGCUCAACACAGCAUGCCAAAGUGGCUGUGGCUAGACUGCC | 0.71 |
| GGCAGAGCUCAACACAGCAUGUCAAAGUGGCUGUGGCUAGACUGCC | 0.99 |
| GGCAGAGCUCAACACAGCAUGGAAAAGUGGCUGUGGCUAGACUGCC | 0.96 |
| GGCAGAGCUCAACACAGCAUGGGAAAGUGGCUGUGGCUAGACUGCC | 0.41 |
| GGCAGAGCUCAACACAGCAUGGUAAAGUGGCUGUGGCUAGACUGCC | 1.06 |
| GGCAGAGCUCAACACAGCCUGUCAAAGUGGCUGUGGCUAGACUGCC | 0.51 |
| GGCAGAGCUCAACACAGCCUGACAAAGUGGCUGUGGCUAGACUGCC | 0.39 |
| GGCAGAGCUCAACACAGCCUGCCAAAGUGGCUGUGGCUAGACUGCC | 0.32 |
| GGCAGAGCUCAACACAGCAUGGCAAAGGGGCUGUGGCUAGACUGCC | 1.04 |
| GGCAGAGCUCAACACAGCAUGGCAAAGAGGCUGUGGCUAGACUGCC | 1.57 |

| Variant | self-cleavage |
| --- | --- |
| GGCAGAGCUCAACACAGCAUGGCAAAGCGGCUGUGGCUAGACUGCC | 0.51 |
| GGCAGAGCUCAACACAGCCUGGCAAAGUGGCUGUGGAUAGACUGCC | 0.04 |
| GGCAGAGCUCAACACAGCCUGGCAAAGUGGCUGUGGGUAGACUGCC | 0.02 |
| GGCAGAGCUCAACACAGCCUGGCAAAGUGGCUGUGGUUAGACUGCC | 0.03 |
| GGCAGAGCUCAACACAGCCUGGCAAAAUGGCUGUGGCUAGACUGCC | 0.54 |
| GGCAGAGCUCAACACAGCCUGGCAGAGUGGCUGUGGCUAGACUGCC | 0.26 |
| GGCAGAGCUCAACACAGCCUGGCAUAGUGGCUGUGGCUAGACUGCC | 0.26 |
| GGCAGAGCUCAACACAGCCUGGCACAGUGGCUGUGGCUAGACUGCC | 0.5 |
| GGCAGAGCUCAACACAGCAUGGCAAAGUGGCUGUGGCUAGAAUGCC | 0.34 |
| GGCAGAGCUCAACACAGCAUGGCAAAGUGGCUGUGGCUAGAUUGCC | 0.43 |
| GGCAGAGCUCAACACAGCAUGGCAAAGUGGCUGUGGCUAGAGUGCC | 0.04 |
| GGCAGAGCUCAACACAGCAUGGCAAAGUGGCUGUGGCUAGACUGCU | 1.74 |
| GGCAGAGCUCAACACAGCAUGGCAAAGUGGCUGUGGCUAGACUGCA | 0.81 |
| GGCAGAGCUCAACACAGCAUGGCAAAGUGGCUGUGGCUAGACUGCG | 1.53 |
| GGCAGAGCUCAACACAGCCUGGCAAAGUGGCUGUGGCUAGACUGCU | 1.42 |
| GGCAGAGCUCAACACAGCCUGGCAAAGUGGCUGUGGCUAGACUGCG | 0.23 |
| GGCAGAGCUCAACACAGCCUGGCAAAGUGGCUGUGGCUAGACUGCA | 0.52 |
| GGCAGAGCUCAACACAGCAUGGCAAAGUGGCUGUGGCUUGACUGCC | 1.35 |
| GGCAGAGCUCAACACAGCAUGGCAAAGUGGCUGUGGCUGGACUGCC | 0.1 |
| GGCAGAGCUCAACACAGCACGGCAAAGUGGCUGUGGCUAGACUGCC | 0.46 |
| GGCAGAGCUCAACACAGCAAGGCAAAGUGGCUGUGGCUAGACUGCC | 0.51 |
| GGCAGAGCUCAACACAGCAGGGCAAAGUGGCUGUGGCUAGACUGCC | 0.59 |
| GGCAGAGCUCAACACAGCAUGGCAAAGUGGCAGUGGCUAGACUGCC | 0.15 |

| Variant | self-cleavage |
| --- | --- |
| GGCAGAGCUCAACACAGCAUGGCAAAGUGGCCGUGGCUAGACUGCC | 0.12 |
| GGCAGAGCUCAACACAGCAUGGCAAAGUGGCGGUGGCUAGACUGCC | 0.1 |
| GGCAGAGCUCAACACAGCAUGGCAAAGUGGCUGUGCCUAGACUGCC | 0.16 |
| GGCAGAGCUCAACACAGCAUGGCAAAGUGGCUGUGACUAGACUGCC | 0.18 |
| GGCAGAGCUCAACACAGCAUGGCAAAGUGGCUGUGUCUAGACUGCC | 0.09 |
| GGCAGAGCUCAACACAGCCUGGGAAAGUGGCUGUGGCUAGACUGCC | 0.42 |
| GGCAGAGCUCAACACAGCCUGGUAAAGUGGCUGUGGCUAGACUGCC | 0.83 |
| GGCAGAGCUCAACACAGCCUGGAAAAGUGGCUGUGGCUAGACUGCC | 0.37 |
| GGCAGAGCUCAACACAGCAUGGCAAAGUGGCUGCGGCUAGACUGCC | 0.43 |
| GGCAGAGCUCAACACAGCAUGGCAAAGUGGCUGGGGCUAGACUGCC | 0.29 |
| GGCAGAGCUCAACACAGCAUGGCAAAGUGGCUGAGGCUAGACUGCC | 0.1 |
| GGCAGAGCUCAACACAGCCUGGCAAAGUGGCUGUGGCUUGACUGCC | 0.28 |
| GGCAGAGCUCAACACAGCCUGGCAAAGUGGCUGUGGCUGGACUGCC | 0.02 |
| GGCAGAGCUCAACACAGCCUGGCAAAGUGGCUGUGGCUCGACUGCC | 0.05 |
| GGCAGAGCUCAACACAGCAUGGCAAAGUGCCUGUGGCUAGACUGCC | 1.5 |
| GGCAGAGCUCAACACAGCAUGGCAAAGUGACUGUGGCUAGACUGCC | 1.99 |
| GGCAGAGCUCAACACAGCAUGGCAAAGUGUCUGUGGCUAGACUGCC | 2.03 |
| GGCAGAGCUCAACACAGCAUGGCAAAGUGGCUGUGGCUAGUCUGCC | 0.77 |
| GGCAGAGCUCAACACAGCAUGGCAAAGUGGCUGUGGCUAGGCUGCC | 0.29 |
| GGCAGAGCUCAACACAGCAUGGCAAAGUGGCUGUGGCUAGCCUGCC | 0.08 |
